T1: KSRP (UniProt Q92945 1-711)
T1 sequence: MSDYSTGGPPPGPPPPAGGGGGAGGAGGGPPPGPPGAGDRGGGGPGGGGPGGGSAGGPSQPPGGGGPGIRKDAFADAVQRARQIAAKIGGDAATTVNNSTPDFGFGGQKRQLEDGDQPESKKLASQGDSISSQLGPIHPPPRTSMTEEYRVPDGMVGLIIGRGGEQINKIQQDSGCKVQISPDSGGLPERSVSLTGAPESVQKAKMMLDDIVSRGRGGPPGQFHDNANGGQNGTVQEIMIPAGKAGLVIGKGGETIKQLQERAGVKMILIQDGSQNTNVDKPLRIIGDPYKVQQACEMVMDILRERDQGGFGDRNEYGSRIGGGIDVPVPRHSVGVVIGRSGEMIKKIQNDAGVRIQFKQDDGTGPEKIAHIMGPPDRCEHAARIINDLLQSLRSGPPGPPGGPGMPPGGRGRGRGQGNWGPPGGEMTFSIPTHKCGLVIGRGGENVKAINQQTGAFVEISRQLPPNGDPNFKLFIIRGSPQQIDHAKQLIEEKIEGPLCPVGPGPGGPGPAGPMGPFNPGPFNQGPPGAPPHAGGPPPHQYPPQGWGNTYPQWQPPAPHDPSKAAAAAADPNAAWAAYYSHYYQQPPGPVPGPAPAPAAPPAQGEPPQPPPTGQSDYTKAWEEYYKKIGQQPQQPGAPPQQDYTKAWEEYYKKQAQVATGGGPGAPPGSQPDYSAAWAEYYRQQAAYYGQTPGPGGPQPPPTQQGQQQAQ


Target: T1, KSRP
Assay: UV-crosslinking or EMSA

Binder	binding result
CUGUUGAAUCUCAUGG (ssRNA) [TL-miR-21 WT]	binds
CUCUUCAAUCUCAUGG (ssRNA) [TL-miR-21 M2]	no binding
